Data on 18 sequences can be found in the DeepSol protein solubility set.

The nature of this series: soluble on expression in E. coli; label from the status in PepcDB or PDB records.
Regarding “MVFEEFISTELKKEKKAFTEEFKEEKEINDNSNLKNDLLKEELQEKARIAELESRILKLELEKKELERENLQLMKENEILRRELDRMRVPPLIVGTVVDKVGERKVVVKSSTGPSFLVNVSHFVNPDDLAPGKRVCLNQQTLTVVDVLPENKDYRAKAMEVDERPNVRYEDIGGLEKQMQEIREVVELPLKHPELFEKVGIEPPKGILLYGPPGTGKTLLAKAVATETNATFIRVVGSELVKKFIGEGASLVKDIFKLAKEKAPSIIFIDEIDAIAAKRTDALTGGDREVQRTLMQLLAEMDGFDARGDVKIIGATNRPDILDPAILRPGRFDRIIEVPAPDEKGRLEILKIHTRKMNLAEDVNLEEIAKMTEGCVGAELKAICTEAGMNAIRELRDYVTMDDFRKAVEKIMEKKKVKVKEPAHLDVLYR”, the “soluble on expression in E. coli” value is “soluble”.
With “MITSYEATVVTTDDIVHEVNLEGKRIGYVIKTENKETPFTVVDIDGPSGNVKTLNDGVKKMCLVHIGKNLPAEKKAEFLATLIAMKLKGEI”, the “soluble on expression in E. coli” value is “not soluble”.
For “MISSNSSSTSLNVETDYPTNGKKPLKEGSVQLTSLSTLLSHHRYFFLYHETLIISKQKGACSYKLKEKLRLEKVWIASSNTADSFLIGWPFTNYLVHFRNTEEKDEWFELLSCCVQQCLRPLFTTISMEINVRGRKQTIRRRVDNGKKSGEIVVDTAGDLGLPHTSYQLTLSFGDNSHRQLQGPENVYVAIMSEIERQGTRLSESQKQALDTCPIANCRLILSTIKSTSGPSAKQLVNSIKKKVLTRTDSRSIFGKGLNGPTPPQPIMTIVDHLRMDGFDAEGIFRKSPKQSTFKELKCELDKGVVPDFHKYNTHVLASILKEYLRSIPGKILLSGNYELWMREIADEPNTEKKVSCCRALLSHLPTSHSILLANVLKLLNKISNSPSSKMNASSLSVCLAPSFLESPDPMEGGKKIPPLIEFLISHAAQVMPGFSTDNVFAIMTSPMVDHNANMVCSPAPSSSHSDDGGSSQKTPIIEELNDADDATSQSSLAESDLPDEPRGTSAHLETISEISEPPTNDERLVFSSSEDEDDDDEDELRVYRPKSSTSTSSCFARTSFVSETLKTSADDGDKGLNKETPRSPCLKRIHFQRTEAQHRNKEGNIKLDFEALKFHRPSVRKSSLEEVARKNSAEFFHHSREPSDAAVTPTPPKNGSTMRKESREEATQTADCGLPHISSNDDSDSRFPAFKSSSVAMLTEPYKSSSSSSSSTSSIPSDPAPRPYFLKEEYTSLANKPTVQVAPFSQEPSLKTINDRLNALRQNSILAQEVPQEPVMTSSRLRSEATKSLTNSPIMPRSYGGSLMQKDREEHSFVADDFYKASSRKPELQRSSSQRGLTSMNNNNNSTKQIYGARPSSLKTPRRFAGAGGVEACVGMDPLEINWSVSQLKTLFQDTKAPSIDTTYNMN”, the “soluble on expression in E. coli” value is given as “not soluble”.
As for “MSGGLLKALRSDSYVELSQYRDQHFRGDNEEQEKLLKKSCTLYVGNLSFYTTEEQIYELFSKSGDIKKIIMGLDKMKKTACGFCFVEYYSRADAENAMRYINGTRLDDRIIRTDWDAGFKEGRQYGRGRSGGQVRDEYRQDYDAGRGGYGKLAQNQ”, the “soluble on expression in E. coli” value is listed as “soluble”.
As to “VADTDGHYRVRAITEISSFNETLGATFSDKEFDTIGGLVINKFGRLPKNGESITIEGFNFTVTRADSRRLHLLKVERIEPGVVEDADSHDSV”, the “soluble on expression in E. coli” value was “not soluble”.
Regarding “MGSDKIHHHHHHMSQSIPEPHWHQTPQEFLASWSTSRGNLRRFFEEHALPPIDARTQREAGEAAAELAASELFGIKLDEYTSGLDSVSGSFEAAGAQHVTTANPEIPQDIGAAAFFDIDNTLIQGSSLVVFAMGLAKKKYFKLNEILPVAWKQIKFRVTGNENAHDVAEGRQQALEFIKGRRVDELVALCEEIVDNNMSEKLWPGTKQLADQHIADGQQVWLVSATPVQLAQALAKRLGFTGALGTVAEVKDGVFTGRLVGDILHGPGKLHAVAALATIERLDLSRCTAYSDSINDVPMLSMVGTAVAINPDRPLAKVAKQHGWAVRDYRSLRKAIRTFGIPALVTAAFSFGGWKAWRR”, the “soluble on expression in E. coli” value is given as “not soluble”.
Take “MSLGKALEIDLGNRLQALDIDGPTREILRECRPIIEKIIDEAVLDSYNKILAYPEVRDAYAGMKIEDACQAQRTHWIDDVFAGTFAEEQIRNGVEIFSKRQRQGLSLRWYFCFYSNILRCMIAAVYPQYRRDKEKLQRVIGALTRTVMFELEIASTAYMHSAQEQVAVALNDAAGQFEREGHHHHHH”: the “soluble on expression in E. coli” value was “soluble”.
For “MGSDKIHHHHHHMHDVLAKGILSSNNGMNIYRGCTHGCIYCDARSLCYGMDHIFEDIEVKTNVVELLEDTLKRKRKKCMIGTGAMSDPYIHLEEKLQNTRRCLEIIDKYGFGLSILTKSNRILRDLDLLKSINNKAKCVVEMTLTTYDEELCKIIEPNVSTTKERFEVLKIMRDNKIPTVVWLSPILPYINDTEENIRGILDYCIEAEVKGIIVFGIGVTLRNGNREYYYKNLDKQFKGLKEKYIRQYGNSYEVVSKNHEKLMKIIKETCNKNNIICDIREVFNYMRTFEEKNNEVQIGFDI” the value was “not soluble”; for “MATFMTEDFLLKNDIARTLYHKYAAPMPIYDFHCHLSPQEIADDRRFDNLGQIWLEGDHYKWRALRSAGVDESLITGKETSDYEKYMAWANTVPKTLGNPLYHWTHLELRRPFGITGTLFGPDTAESIWTQCNEKLATPAFSARGIMQQMNVRMVGTTDDPIDSLEYHRQIAADDSIDIEVAPSWRPDKVFKIELDGFVDYLRKLEAAADVSITRFDDLRQALTRRLDHFAACGCRASDHGIETLRFAPVPDDAQLDAILGKRLAGETLSELEIAQFTTAVLVWLGRQYAARGWVMQLHIGAIRNNNTRMFRLLGPDTGFDSIGDNNISWALSRLLDSMDVTNELPKTILYCLNPRDNEVLATMIGNFQGPGIAGKVQFGSGWWFNDQKDGMLRQLEQLSQMGLLSQFVGMLTDSRSFLSYTRHEYFRRILCNLLGQWAQDGEIPDDEAMLSRMVQDICFNNAQRYFTIK”, “not soluble”; for “MLDFKPIELKDRELFHEYLKDYDFLTYEYSFLTLYIWRKMYNTEFAIVDDTIVIKKRTANNGTYFMQPIGADKSKIADITLKLNTLRKNNPDFKYLYGDVETPFLEQLHENFGNLVTSHEDKNNFDYIFNSKDLIKLSGKKYHRKKNQYNQFIKKYDYRIEEIQSPEVIKNCIDLSLKWYDYKSLQSEQLKNEQKAIFDIFSNIKIFNNIKGIAVYVNNEIAGFAIGEKLNSKMATVHFEKGNYNFSGIYPFLNKSLVEIFFRDVEFINLQEDLGLEGLRRAKSAYQPIKLEKKYLVNI”, “not soluble”.
For “MSLDPIEFIQKSASSIASTMHKLKLKYNPFSEKPIRGNTKFFVGRVSELREIGEILGSALHGSVANAAIVGTKGIGKSSMLNIIYYATKKQGHWVVEMTASQVTPRQFLIQLLYNILTENIITMSGTIKSDYMEHSSRILDMYRKLNNYGDKVPIHYPRERIERDLEYLINEVKSPDKLCIILIDEADQFAKKSCLSLLQFFHSFLYEEGILTFMAGSPTLMDDLTKISPPIKDRIPKIINMPPLSKDESYDLIRRRLEDAHIDGAEEFEPFTEEAIHKIVEECDGIPRKIIMTCSESISIAIRKGLTKIDEKVVKEAMHSLGISVGHQILNHLTPAQSEIVRAMAELGGSATVTQLAEYLKKSPSTIGTHLSDIYEMGYIYKEREGNNVYYKLSKELRDVLIGEDDEGHHHHHH”, the “soluble on expression in E. coli” value is recorded as “soluble”.
Regarding “MTDHALLLVNLGSPASTQVADVRSYLNQFLMDPYVIDIPWPLRRLLVSLILIKRPEQSAHAYASIWWDEGSPLVVLSKRLQQAMKKEWSHGPVELAMRYGEPSIETVLTRLSEQGFKKVTLAPLYPQFADSTVTTVIEEAKRVVRAKSLKMQFSVLQPFYDQPEYVSALVESVRPHLEQPYDHLLLSFHGLPERHLHKRDPTGKHCLKDDCCMTAPAQVVATCYRAQCLQSAAAFAKRMGIPDGKWSVSFQSRLGRAKWIEPYTEARLDELAAQGVKKLLVMCPAFVADCIETLEEIGDRGAEQFKEAGGEELILVPCLNDDPNWAKELNRLCERAPLML”, the “soluble on expression in E. coli” value is on record as “not soluble”.
Take “MYLTKEEEQILNGEAGETLRQAIQILVALGDIYGADRLIPIKSAQIAGVSYKTIGDAGLEWISDLEGQVKVPAILNPAGMDLEDWERLRISPEFAEKQKEIVQAYKKLGIRCECTCTPYTLEGFSVSYGDHLAWSESSAISYANSVIGARTNREGGPSALSAALLGKTANYGFHLDKNRVPEVSVSVECSLKESDYGALGYVAGKLIGNRVPIFQLRSKPEKDELKSLGAAMAASGAVALYHVKGVTPEACRMDFEEPEEKIIIERSQLDEVYESKGKEPELITIGCPHCSAAELKKAAELLKGKTVSKETWIFTSRELAERYPEYIRTIEESGAKVVCDTCMVVSPATNSYSCVMVNSGKAFAYVPGMCGAQSVYGNMEACINKATGGKERKAGDSHLEHHHHHH”: the “soluble on expression in E. coli” value is given as “not soluble”.
For the sequence “MAELHIIGQIIGATGFPQNSLFCKWGVHTGGAWRLLSGLREGQTQVDMPQTGDMAYWSHPIDLHYTTKGLQGWPKLHLQVWHQDSFGRCQLYGYGYIHVPSSPGQHRLQCVTWRPLGSWQDQLSEMFVGGGPQLRSPDLIYSGADRYRLHTVGMGTVELELCIILRHFDRYGVES”, the “soluble on expression in E. coli” value is listed as “not soluble”.
For “MMEITRETMSFTSTTPSARAPLGGRTTGNVTSQDRMLKIVTEMRSGAGSGLSPFGQNAASTIRDSREREKKEMSDLNDRLASYIEKVRFLEAQNRKLAADLDALRSKWGKDTHNIRNMYEGELVDAQKLIDETNKQRKDMEGQLKKMQDELAEMRRKLEDATKGREQDRAKIDALLVTLSNLEAEISLLKRRIAQLEDEVKRIKQENQRLLSELQRARTDLDQETLNRIDYQNQVQTLLEEIDFLRRVHDNEIKELQTLASRDTTPENREFFKNELSSAIRDIREEYDQVNNVHRNDMESWYRLKVQEIQTQSARQNMEQGYAKEEVKRLRTQLSDLRGKLADLESRNSLLEKQIQELNYQLEDDQRSYEAALNDRDSQIRKMREECQALMVELQMLLDTKQTLDAEIAIYRKMLEGEENRAGLKQLVEQVVKTHAITQETDTETMRVVKGETASRQSFQRSAKGNVSIHEASPDGKFIVLQNTHRAKDEAIGEWKLKRRIDGKRENVYTLPRDFVLRAGKTLKIFARNQGVASPPDQLVYDAEDSFGSGNNVQTILFNKEGEERATHIQRQSTA” the value was “not soluble”; for “MLNYELELWEKGLLVAGVDEAGRGPLAGPVVAAAVILPPFTEPFIKGDSKKLTKKEREEAYEEIKNKALAVGTAVVDSAVIDRVNILRATKLAMKRALKDLKYHYDIVITDYVKLEGENCMPLVKGDEKSLNCACASIIAKVIRDKIMEIYHKIYPDFNFASNKGYPSKTHLEKVEKGEYTEIHRKSFSPLKKKLF”, “soluble”; for “MTGLYIHIPFCATRCSYCDFYSQTNSALRSEYIQALIAEMSIRRAEVTDTIGTLYFGGGTPSLLSPQEIGRIIEQVYRLFSFSSDAEITLEANPDDLNTSYVQELRTLPINRISMGAQSFHDEDLHFLNRRHNARQVLEAVDTCRNAGLTNLSIDLIYGLPGQTPARWQENISAVLALSPPHLSAYHLIYEEGTPLTRLLHAGKVREVDEEVSLELFRMLREQLTGAGYEHYEISNFARSGYHSCHNSSYWQDTPYLGLGPSAHSFDGRRTRRSNPSDIRRYIVSMAAGKPLFTEEILTDNDRYNEVVMTRLRTACGLSPDQIGHLFGKESAERCIRTAAPFIRDGLLHEEADGRIRLTEKGIFLSDRIISEFFIV”, “not soluble”.
For “MGSDKIHHHHHHMNSHWSEYWQQGHTTSFGEALSGNYEGVLKNVWEPVFDGLTENFLVVDVGTGNGSLPLLLRDGLSKVDLTGKVIGVDLAEVTLANSVSNNNQNIDIALMSNTRCEQLPFESNSVDLYISQFGFEYSNIEQSLEEATRVLKDDGQFVIVCHHNRSMILNRNRRILTLIDKDEVNLLINCLGKMANAMGNVSNQEDVERIKKDLQCEQIRAEINDLIKLLVMFDEAAAQDCDLMRFVAQFFKAGLFWPVTKKLEFIEFITIQMDTLKLRLTELVNAAFDETKLATFIAKFHQNNMVLNELKVLKNEQNEVLGWYLHGSKFI”, the “soluble on expression in E. coli” value is on record as “not soluble”.
